# In US20250263467A1 (VIR BIOTECHNOLOGY, published 2025):
# Key:
# [1] = target: SARS-CoV-2 Spike protein on pseudotyped virus (SARS-CoV-2 (Wuhan-Hu-1), UniProt P0DTC2 14-1273); experiment: cell-based or functional assay
# [2] = target: SARS-CoV-1 RBD (Sino Biological) (SARS-CoV-1, UniProt P59594 306-527); experiment: BLI (Octet), antibody on protein A sensors, RBD in solution
# [3] = target: SARS-CoV-2 S protein (strain BetaCoV/Wuhan-Hu-1/2019) expressed on transfected cells (SARS-CoV-2 (Wuhan-Hu-1), UniProt P0DTC2 14-1273); experiment: flow cytometry, B cell supernatant on S-transfected ExpiCHO cells
# [4] = target: SARS-CoV-2 RBD with a Strep Tag II (SARS-CoV-2, UniProt P0DTC2 331-550); experiment: BLI (Octet), RBD-Strep Tag II captured, antibody from B cell supernatant
# [5] = target: SARS-CoV-2 RBD (residues 331-550 of spike from BetaCoV/Wuhan-Hu-1/2019, produced in house in Expi-CHO cells) (SARS-CoV-2 (Wuhan-Hu-1), UniProt P0DTC2 331-550); experiment: BLI (Octet), antibody on protein A sensors, RBD in solution
# [6] = target: His-tagged RBD of SARS-CoV-2 (SARS-CoV-2 (Wuhan-Hu-1), UniProt P0DTC2 331-550); experiment: BLI (Octet), His-tagged RBD on anti-HIS sensors, antibody in solution
Binder,binding result [2],binding result [3],also measured
"S315 rIgG1-LS (antibody, V domains shown) VH: EVQLVESGGGLVQPGGSLRLSCAASGFTFSNYWMTWVRQAPGKGLEWVANIKQDGSEKYYVDSVKGRFTISRDNAKNSLYLQMNSLRAEDTAVYYCARDLWWNDQAHYYGMDVWGQGTTVTVSS VL: SYELTQPPSVSVSPGQTARITCSGDAFPNQYAYWYQQKPGQAPVMLIYKDSERPSGIPERFFGSSSGTTVTLTIRGVQAEDEADYYCQSADSSGTVFGGGTKLTVL",–,–,"IC50, neutralization of SARS-CoV-2pp on DBT-ACE2 cells (further assay) [1]: 25.1 µg/mL"
"S304 rIgG1 (antibody, V domains shown) VH: EVQLVESGGGLVQPGGSLRLSCAASGFTFSSYDMHWVRQTTGKGLEWVSTIGTAGDTYYPDSVKGRFTISREDAKNSLYLQMNSLRAGDTAVYYCARGDSSGYYYYFDYWGQGTLLTVSS VL: DIQMTQSPSSLSAAVGDRVTITCRASQSIGSYLNWYQQKPGKAPKLLIYAASSLQSGVPSRFSGSGSGTDFTLTISSLQPEDFAIYYCQQSYVSPTYTFGPGTKVDIK",binds,–,"IC50, neutralization of SARS-CoV-2pp on DBT-ACE2 cells [1]: ~17 µg/mL"
"SARS-CoV-2 S303-v1 (antibody, V domains shown) VH: EVQLVESGGGLVKPGGSLRLSCAASGFTFLTYSMNWVRQTPGKRLQWVSAISGSGGATYYADSVKGRFTISRDNSKNTLYLQMNTVTADDTAIYFCARERDDIFPMGLNAFDIWGQGAMVIVSS VL: DIQMTQSPSTLSASVGDRVTITCRASQSISNWLAWYQQKPGKAPKLLIYKASSLESGVPSRFSGSGSGTEFTLTISSLQPDDSATYYCQQYDTYSWTFGQGTKVEIK",–,binds,binding result [4]: binds
"S303 rIgG1 (antibody, V domains shown) VH: EVQLVESGGGLVKPGGSLRLSCAASGFTFLTYSMNWVRQTPGKRLQWVSAISGSGGATYYADSVKGRFTISRDNSKNTLYLQMNTVTADDTAIYFCARERDDIFPMGLNAFDIWGQGAMVIVSS VL: DIQMTQSPSTLSASVGDRVTITCRASQSISNWLAWYQQKPGKAPKLLIYKASSLESGVPSRFSGSGSGTEFTLTISSLQPDDSATYYCQQYDTYSWTFGQGTKVEIK",binds,–,binding result [5]: binds; binding result [6]: binds
"SARS-CoV-2 S302 (antibody, V domains shown) VH: QVQLVESGGGVVQPGRSLRLSCAASGFTFSSYGMHWVRQAPGKGLEWVAVISYDGSNKYYADSVKGRFTISRDNSKNTLYLQMNSLRAEDTAVYYCAKDISSGWDRVFDYWGQGTLVTVSS VL: EILLTQSPGTLSLSPGERATLSCRTSQSVGSSYLAWYQQKPGQAPRLLIYAASSRAIGIPDRFSGSGSGTDFTLTISRLEPEDFAVYYCQQYGSSPWTFGQGTKVEIK",–,binds,–
"SARS-CoV-2 S308-v1 (antibody, V domains shown) VH: QVQLVESGGGVVQPGRSLRLSCAASRFTFSSYGMHWVRQAPGKGLEWVAVIWHDGNNKHYGDSVKGRVTISRDNSKNTLYLQMTSLRAEDTAVYYCARAVTTFKGSGRARMRGMDVWGQGTTVTVSS VL: DIQLTQSPSFLSASVGDRVTITCRASQGINTYLAWYQQKPGKAPKLLIYAASTLQSGVPSRFSGSGSGTEFTLTISSLQPEDFATYYCQHLDTYPFTFGPGTKVDIK",–,binds,–
